From US6780850

Assays:
[1] = molecular target: T1, alpha-thrombin (active site blocked with fluorescein-PPACK) (Homo sapiens, UniProt P00734;P00734 P00734:328-363,P00734:364-622); experiment: fluorometric titration, 20 mM Tris, 150 mM NaCl, pH 7.4; exosite 1
[2] = molecular target: T1, alpha-thrombin (active site blocked …); experiment: fluorometric titration, 20 mM Tris, 150 mM NaCl, pH 7.4; exosite 2
thrombin (IIa), active [3] = molecular target: T2, thrombin (IIa), active (UniProt P00734;P00734 P00734:328-363,P00734:364-622); experiment: inhibition; kD in the hydrolysis of Chromozym-thrombin
[4] = molecular target: T1, alpha-thrombin (active site blocked …); experiment: fluorometric titration; duplicate measurement gave 110 nM; 20 mM Tris, 150 mM NaCl, pH 7.4
thrombin (IIa), active [5] = molecular target: T2, thrombin (IIa), active; experiment: inhibition; inhibition of coagulation
[6] = molecular target: T1, alpha-thrombin (active site blocked …); experiment: fluorometric titration; duplicate measurement gave 99 nM; 20 mM Tris, 150 mM NaCl, pH 7.4
[7] = molecular target: T1, alpha-thrombin (active site blocked …); experiment: fluorometric titration, 492/522 nm, 100 nM thrombin, 20 mM Tris, 150 mM NaCl, pH 7.4; exosite 1

Binder: GGTTGGTGTGGTTGG (ssDNA, 3'-biotin (biotin TEG)) [ODN 1e]
- Kd [1]: 55 nM

Binder: AGTCCGTGGTAGGGCAGGTTGGGGTGACT (ssDNA, 3'-biotin (biotin TEG)) [ODN 2e]
- Kd [2]: 85 nM

Binder: AGTCCGTGGTAGGGCAGGTTGGGGTGACT (ssDNA, 3'-biotin-streptavidin) [ODN 2f]
- Kd (thrombin (IIa), active [3]): 10.2 nM
- Kd [4]: 89 nM

Binder: GGTTGGTGTGGTTGG (ssDNA, 3'-biotin-streptavidin) [ODN 1f]
- Ki (thrombin (IIa), active [5]): ~100 nM
- Kd [6]: 41 nM

Binder: AGTCCGTGGTAGGGCAGGTTGGGGTGACT (ssDNA) [ODN 2a]
- Kd [2]: 16.5 nM

Binder: GGTTGGTGTGGTTGG (ssDNA) [ODN 1a]
- Kd [7]: 45 nM
